± gives the standard deviation of the averaged measurements.

The nature of this series: total protein half-life in vivo (active degradation + dilution); higher = more stable protein.
The mark [1] stands for this setting: E. coli NCM3722 delta-clpP delta-lon delta-hslV, growth: N-lim chemostat, doubling time 6 h.
Where [2] appears, read: E. coli NCM3722 delta-clpP, growth: N-lim chemostat, doubling time 6 h.
[3] abbreviates: E. coli NCM3722 delta-hslV, growth: N-lim chemostat, doubling time 6 h.
The mark [4] stands for this setting: E. coli NCM3722 delta-lon, growth: N-lim chemostat, doubling time 6 h.
[5] abbreviates: E. coli NCM3722 delta-smpB, growth: N-lim chemostat, doubling time 6 h.
The mark [6] stands for this setting: wild type E. coli NCM3722, growth: C-lim chemostat, doubling time 3 h.
Setting [7] is: wild type E. coli NCM3722, growth: C-lim chemostat, doubling time 6 h.
Where [8] appears, read: wild type E. coli NCM3722, growth: C-lim chemostat, doubling time 12 h.
[9] abbreviates: wild type E. coli NCM3722, growth: N-lim chemostat, doubling time 6 h.
[10] abbreviates: wild type E. coli NCM3722, growth: N-lim chemostat, doubling time 12 h.
The mark [11] stands for this setting: wild type E. coli NCM3722, growth: P-lim chemostat, doubling time 6 h.
The mark [12] stands for this setting: wild type E. coli NCM3722, growth: P-lim chemostat, doubling time 12 h.

In the case of “MSVQQIDWDLALIQKYNYSGPRYTSYPTALEFSEDFGEQAFLQAVARYPERPLSLYVHIPFCHKLCYFCGCNKIVTRQQHKADQYLDALEQEIVHRAPLFAGRHVSQLHWGGGTPTYLNKAQISRLMKLLRENFQFNADAEISIEVDPREIELDVLDHLRAEGFNRLSMGVQDFNKEVQRLVNREQDEEFIFALLNHAREIGFTSTNIDLIYGLPKQTPESFAFTLKRVAELNPDRLSVFNYAHLPTIFAAQRKIKDADLPSPQQKLDILQETIAFLTQSGYQFIGMDHFARPDDELAVAQREGVLHRNFQGYTTQGDTDLLGMGVSAISMIGDCYAQNQKELKQYYQQVDEQGNALWRGIALTRDDCIRRDVIKSLICNFRLDYAPIEKQWDLHFADYFAEDLKLLAPLAKDGLVDVDEKGIQVTAKGRLLIRNICMCFDTYLRQKARMQQFSRVI”, the “total protein half-life in vivo” value reads like this: under setting [1], 4.79 ± 0.99 h; under setting [2], 3.9 ± 0.13 h; under setting [3], 3.36 ± 0.42 h; under setting [4], 3.22 ± 0.1 h; under setting [5], 2.98 ± 0.056 h; under setting [6], 2.55 ± 0.33 h. Also, the “total protein half-life in vivo” value turned out to be 4.23 ± 0.08 h under setting [7]; 6.14 ± 0.71 h under setting [8]; 2.99 ± 0.12 h under setting [9]; 4.64 ± 0.16 h under setting [10]; 4.23 ± 0.068 h under setting [11]; 7.23 ± 0.7 h under setting [12].
With “MTEVRRRGRPGQAEPVAQKGAQALERGIAILQYLEKSGGSSSVSDISLNLDLPLSTTFRLLKVLQAADFVYQDSQLGWWHIGLGVFNVGAAYIHNRDVLSVAGPFMRRLMLLSGETVNVAIRNGNEAVLIGQLECKSMVRMCAPLGSRLPLHASGAGKALLYPLAEEELMSIILQTGLQQFTPTTLVDMPTLLKDLEQARELGYTVDKEEHVVGLNCIASAIYDDVGSVVAAISISGPSSRLTEDRFVSQGELVRDTARDISTALGLKAHP [P0ACN4]”, the “total protein half-life in vivo” value is, setting by setting: under setting [2], 5.13 ± 0.62 h; under setting [3], 5.12 ± 0.34 h; under setting [4], 4.42 ± 0.94 h; under setting [5], 4.4 ± 0.4 h; under setting [6], 2.79 ± 0.13 h; under setting [7], 5.64 ± 0.18 h. The “total protein half-life in vivo” value was 11 ± 0.97 h under setting [8]; 4.91 ± 0.23 h under setting [9]; 9.46 ± 0.2 h under setting [10]; 5.44 ± 0.41 h under setting [11]; 11.1 ± 0.81 h under setting [12].
Consider “MFNRIRISTTLFLILILCGILQIGSNGMSFWAFRDDLQRLNQVEQSNQQRAALAQTRAVMLQASTALNKAGTLTALSYPADDIKTLMTTARASLTQSTTLFKSFMAMTAGNEHVRGLQKETEKSFARWHNDLEHQATWLESNQLSDFLTAPVQGSQNAFDVNFEAWQLEINHVLEAASAQSQRNYQISALVFISMIIVAAIYISSALWWTRKMIVQPLAIIGSHFDSIAAGNLARPIAVYGRNEITAIFASLKTMQQALRGTVSDVRKGSQEMHIGIAEIVAGNNDLSSRTEQQAASLAQTAASMEQLTATVGQNADNARQASELAKNAATTAQAGGVQVSTMTHTMQEIATSSQKIGDIISVIDGIAFQTNILALNAAVEAARAGEQGRGFAVVAGEVRNLASRSAQAAKEIKGLIEESVNRVQQGSKLVNNAAATMIDIVSSVTRVNDIMGEIASASEEQQRGIEQVAQAVSQMDQVTQQNASLVEEAAVATEQLANQADHLSSRVAVFTLEEHEVARHESVQLQIAPVVS”, for which the “total protein half-life in vivo” value under setting [2] turned out to be 6.16 h; the “total protein half-life in vivo” value under setting [5] was above 8 h; the “total protein half-life in vivo” value under setting [6] worked out at 1.87 ± 0.38 h; the “total protein half-life in vivo” value under setting [7] amounted to 3.01 ± 0.33 h; the “total protein half-life in vivo” value under setting [8] came out at 4.13 ± 0.71 h.
Take “MFNNILVVCVGNICRSPTAERLLQRYHPELKVESAGLGALVGKGADPTAISVAAEHQLSLEGHCARQISRRLCRNYDLILTMEKRHIERLCEMAPEMRGKVMLFGHWDNECEIPDPYRKSRETFAAVYTLLERSARQWAQALNAEQV [P0AAB2]”: the “total protein half-life in vivo” value under setting [1] is 5.46 h and the “total protein half-life in vivo” value under setting [4] is 1.13 h.
Turning to “MNNNTTAPTYTLRGLQLIGWRDMQHALDYLFADGQLKQGTLVAINAEKMLTIEDNAEVRELINAAEFKYADGISVVRSVRKKYPQAQVSRVAGADLWEELMARAGKEGTPVFLVGGKPEVLAQTEAKLRNQWNVNIVGSQDGYFKPEQRQALFERIHASGAQIVTVAMGSPKQEIIMRDCRLVHPDALYMGVGGTYDVFTGHVKRAPKIWQTLGLEWLYRLLSQPSRIKRQLRLLRYLRWHYTGNL”, the “total protein half-life in vivo” value runs as follows: under setting [1], 6.19 ± 0.52 h; under setting [2], 6.04 ± 0.25 h; under setting [3], 6.18 ± 0.083 h; under setting [4], 7.03 ± 0.76 h; under setting [5], 6.88 ± 0.092 h; under setting [6], 3.045 ± 0.02 h. Moreover, the “total protein half-life in vivo” value is, setting by setting: under setting [7], 5.84 ± 0.15 h; under setting [8], 12.2 ± 1.7 h; under setting [9], 6.58 ± 0.62 h; under setting [10], 12.6 ± 0.13 h; under setting [11], 5.76 ± 0.52 h; under setting [12], 13.4 ± 1.2 h.
With “MSMVETAPSKIQVRNLNFYYGKFHALKNINLDIAKNQVTAFIGPSGCGKSTLLRTFNKMFELYPEQRAEGEILLDGDNILTNSQDIALLRAKVGMVFQKPTPFPMSIYDNIAFGVRLFEKLSRADMDERVQWALTKAALWNETKDKLHQSGYSLSGGQQQRLCIARGIAIRPEVLLLDEPCSALDPISTGRIEELITELKQDYTVVIVTHNMQQAARCSDHTAFMYLGELIEFSNTDDLFTKPAKKQTEDYITGRYG [P0AAH0]”, the “total protein half-life in vivo” value under setting [1] is 5.28 ± 0.14 h; the “total protein half-life in vivo” value under setting [3] stood at 4.78 ± 0.28 h; the “total protein half-life in vivo” value under setting [4] was 5.5 ± 0.56 h; the “total protein half-life in vivo” value under setting [5] turned out to be 4.68 ± 0.39 h; the “total protein half-life in vivo” value under setting [6] stood at 3.05 ± 0.094 h; the “total protein half-life in vivo” value under setting [8] amounted to 9.16 ± 0.51 h. The “total protein half-life in vivo” value under setting [9] was determined as 4.81 ± 0.24 h, the “total protein half-life in vivo” value under setting [10] worked out at 9.09 ± 0.47 h, the “total protein half-life in vivo” value under setting [11] came out at 5.49 ± 0.53 h and the “total protein half-life in vivo” value under setting [12] worked out at 12.1 ± 0.36 h.
For “MSRLSPVNQARWARFRHNRRGYWSLWIFLVLFGLSLCSELIANDKPLLVRYDGSWYFPLLKNYSESDFGGPLASQADYQDPWLKQRLENNGWVLWAPIRFGATSINFATNKPFPSPPSRQNWLGTDANGGDVLARILYGTRISVLFGLMLTLCSSVMGVLAGALQGYYGGKVDLWGQRFIEVWSGMPTLFLIILLSSVVQPNFWWLLAITVLFGWMSLVGVVRAEFLRTRNFDYIRAAQALGVSDRSIILRHMLPNAMVATLTFLPFILCSSITTLTSLDFLGFGLPLGSPSLGELLLQGKNNLQAPWLGITAFLSVAILLSLLIFIGEAVRDAFDPNKAV”, the “total protein half-life in vivo” value reads like this: under setting [1], 6 h; under setting [2], 6.1 h; under setting [5], 5.43 ± 0.61 h; under setting [9], 6.44 h; under setting [12], 13.2 h.
As for “MNNLPLLNDLRVFMLVARRAGFAAVAEELGVSPAFVSKRIALLEQTLNVVLLHRTTRRVTITEEGERIYEWAQRILQDVGQMMDELSDVRQVPQGMLRIISSFGFGRQVVAPALLALAKAYPQLELRFDVEDRLVDLVNEGVDLDIRIGDDIAPNLIARKLATNYRILCASPEFIAQHGAPKHLTDLSALPCLVIKERDHPFGVWQLRNKEGPHAIKVTGPLSSNHGEIVHQWCLDGQGIALRSWWDVSENIASGHLVQVLPEYYQPANVWAVYVSRLATSAKVRITVEFLRQYFAEHYPNFSLEHA”, the “total protein half-life in vivo” value under setting [1] is 5.43 ± 0.67 h; the “total protein half-life in vivo” value under setting [2] was 1.82 ± 0.43 h; the “total protein half-life in vivo” value under setting [5] is 1.16 h; the “total protein half-life in vivo” value under setting [6] was determined as 0.948 ± 0.17 h; the “total protein half-life in vivo” value under setting [7] came to 2.24 ± 0.21 h; the “total protein half-life in vivo” value under setting [8] amounted to 3.54 ± 0.1 h. The “total protein half-life in vivo” value under setting [11] turned out to be 0.535 h.
For the sequence “MGQVLPLVTRQGDRIAIVSGLRTPFARQATAFHGIPAVDLGKMVVGELLARSEIPAEVIEQLVFGQVVQMPEAPNIAREIVLGTGMNVHTDAYSVSRACATSFQAVANVAESLMAGTIRAGIAGGADSSSVLPIGVSKKLARVLVDVNKARTMSQRLKLFSRLRLRDLMPVPPAVAEYSTGLRMGDTAEQMAKTYGITREQQDALAHRSHQRAAQAWSDGKLKEEVMTAFIPPYKQPLVEDNNIRGNSSLADYAKLRPAFDRKHGTVTAANSTPLTDGAAAVILMTESRAKELGLVPLGYLRSYAFTAIDVWQDMLLGPAWSTPLALERAGLTMSDLTLIDMHEAFAAQTLANIQLLGSERFAREALGRAHATGEVDDSKFNVLGGSIAYGHPFAATGARMITQTLHELRRRGGGFGLVTACAAGGLGAAMVLEAE”, the “total protein half-life in vivo” value by setting is: under setting [2], 5.81 ± 0.29 h; under setting [3], 5.7 ± 0.78 h; under setting [4], 6.04 ± 0.061 h; under setting [5], 5.43 ± 0.24 h; under setting [6], 2.94 ± 0.14 h; under setting [7], 6.16 ± 0.1 h. Further, the “total protein half-life in vivo” value reads like this: under setting [8], 12.3 ± 1.9 h; under setting [9], 6.23 ± 0.13 h; under setting [10], 12 ± 0.41 h; under setting [11], 6.44 ± 0.075 h.
On to “MPQQIELRNIALQAAQPLVHGVSLTLQRGRVLALVGGSGSGKSLTCAATLGILPAGVRQTAGEILADGKPVSPCALRGIKIATIMQNPRSAFNPLHTMHTHARETCLALGKPADDATLTAAIEAVGLENAARVLKLYPFEMSGGMLQRMMIAMAVLCESPFIIADEPTTDLDVVAQARILDLLESIMQKQAPGMLLVTHDMGVVARLADDVAVMSDGKIVEQGDVETLFNAPKHTVTRSLVSAHLALYGMELAS”, for which the “total protein half-life in vivo” value under setting [1] worked out at 4.47 h.
Consider “MIKIGVIADDFTGATDIASFLVENGLPTVQINGVPTGKMPEAIDALVISLKTRSCPVVEATQQSLAALSWLQQQGCKQIYFKYCSTFDSTAKGNIGPVTDALMDALDTPFTVFSPALPVNGRTVYQGYLFVMNQLLAESGMRHHPVNPMTDSYLPRLVEAQSTGRCGVVSAHVFEQGVDAVRQELARLQQEGYRYAVLDALTEHHLEIQGEALRDAPLVTGGSGLAIGLARQWAQENGNQARKAGRPLAGRGVVLSGSCSQMTNRQVAHYRQIAPAREVDVARCLSIETLAAYAHELAEWVLGQESVLAPLVFATASTDALAAIQQQYGAQKASQAVETLFSQLAARLAAEGVTRFIVAGGETSGVVTQSLGIKGFHIGPTISPACRG”, for which the “total protein half-life in vivo” value under setting [1] was determined as 5.65 ± 0.84 h and the “total protein half-life in vivo” value under setting [12] stood at 11.4 h.
